B1: Transcription factor p65 (Mus musculus), Q04207 (parent)
chain: MDDLFPLIFPSEPAQASGPYVEIIEQPKQRGMRFRYKCEGRSAGSIPGERSTDTTKTHPTIKINGYTGPGTVRISLVTKDPPHRPHPHELVGKDCRDGYYEADLCPDRSIHSFQNLGIQCVKKRDLEQAISQRIQTNNNPFHVPIEEQRGDYDLNAVRLCFQVTVRDPAGRPLLLTPVLSHPIFDNRAPNTAELKICRVNRNSGSCLGGDEIFLLCDKVQKEDIEVYFTGPGWEARGSFSQADVHRQVAIVFRTPPYADPSLQAPVRVSMQLRRPSDRELSEPMEFQYLPDTDDRHRIEEKRKRTYETFKSIMKKSPFNGPTEPRPPTRRIAVPTRNSTSVPKPAPQPYTFPASLSTINFDEFSPMLLPSGQISNQALALAPSSAPVLAQTMVPSSAMVPLAQPPAPAPVLTPGPPQSLSAPVPKSTQAGEGTLSEALLHLQFDADEDLGALLGNSTDPGVFTDLASVDNSEFQQLLNQGVSMSHSTAEPMLMEYPEAITRLVTGSQRPPDPAPTPLGTSGLPNGLSGDEDFSSIADMDFSALLSQISS

Columns and labels:
cbp_mouse Crebbp, P45481 [1] = variants of: B1; details: with cbp_mouse Crebbp
cbp_mouse Crebbp, P45481 [2] = variants of: B1; details: with cbp_mouse Crebbp; remark: listed apart in the source
cbp_mouse Crebbp, P45481 [3] = variants of: B1; details: with cbp_mouse Crebbp; remark: listed apart in the source
[4] = variants of: B1; details: with ep300_mouse Ep300, B2RWS6
Chain of ep300_mouse Ep300, B2RWS6 (B2RWS6 whole entry): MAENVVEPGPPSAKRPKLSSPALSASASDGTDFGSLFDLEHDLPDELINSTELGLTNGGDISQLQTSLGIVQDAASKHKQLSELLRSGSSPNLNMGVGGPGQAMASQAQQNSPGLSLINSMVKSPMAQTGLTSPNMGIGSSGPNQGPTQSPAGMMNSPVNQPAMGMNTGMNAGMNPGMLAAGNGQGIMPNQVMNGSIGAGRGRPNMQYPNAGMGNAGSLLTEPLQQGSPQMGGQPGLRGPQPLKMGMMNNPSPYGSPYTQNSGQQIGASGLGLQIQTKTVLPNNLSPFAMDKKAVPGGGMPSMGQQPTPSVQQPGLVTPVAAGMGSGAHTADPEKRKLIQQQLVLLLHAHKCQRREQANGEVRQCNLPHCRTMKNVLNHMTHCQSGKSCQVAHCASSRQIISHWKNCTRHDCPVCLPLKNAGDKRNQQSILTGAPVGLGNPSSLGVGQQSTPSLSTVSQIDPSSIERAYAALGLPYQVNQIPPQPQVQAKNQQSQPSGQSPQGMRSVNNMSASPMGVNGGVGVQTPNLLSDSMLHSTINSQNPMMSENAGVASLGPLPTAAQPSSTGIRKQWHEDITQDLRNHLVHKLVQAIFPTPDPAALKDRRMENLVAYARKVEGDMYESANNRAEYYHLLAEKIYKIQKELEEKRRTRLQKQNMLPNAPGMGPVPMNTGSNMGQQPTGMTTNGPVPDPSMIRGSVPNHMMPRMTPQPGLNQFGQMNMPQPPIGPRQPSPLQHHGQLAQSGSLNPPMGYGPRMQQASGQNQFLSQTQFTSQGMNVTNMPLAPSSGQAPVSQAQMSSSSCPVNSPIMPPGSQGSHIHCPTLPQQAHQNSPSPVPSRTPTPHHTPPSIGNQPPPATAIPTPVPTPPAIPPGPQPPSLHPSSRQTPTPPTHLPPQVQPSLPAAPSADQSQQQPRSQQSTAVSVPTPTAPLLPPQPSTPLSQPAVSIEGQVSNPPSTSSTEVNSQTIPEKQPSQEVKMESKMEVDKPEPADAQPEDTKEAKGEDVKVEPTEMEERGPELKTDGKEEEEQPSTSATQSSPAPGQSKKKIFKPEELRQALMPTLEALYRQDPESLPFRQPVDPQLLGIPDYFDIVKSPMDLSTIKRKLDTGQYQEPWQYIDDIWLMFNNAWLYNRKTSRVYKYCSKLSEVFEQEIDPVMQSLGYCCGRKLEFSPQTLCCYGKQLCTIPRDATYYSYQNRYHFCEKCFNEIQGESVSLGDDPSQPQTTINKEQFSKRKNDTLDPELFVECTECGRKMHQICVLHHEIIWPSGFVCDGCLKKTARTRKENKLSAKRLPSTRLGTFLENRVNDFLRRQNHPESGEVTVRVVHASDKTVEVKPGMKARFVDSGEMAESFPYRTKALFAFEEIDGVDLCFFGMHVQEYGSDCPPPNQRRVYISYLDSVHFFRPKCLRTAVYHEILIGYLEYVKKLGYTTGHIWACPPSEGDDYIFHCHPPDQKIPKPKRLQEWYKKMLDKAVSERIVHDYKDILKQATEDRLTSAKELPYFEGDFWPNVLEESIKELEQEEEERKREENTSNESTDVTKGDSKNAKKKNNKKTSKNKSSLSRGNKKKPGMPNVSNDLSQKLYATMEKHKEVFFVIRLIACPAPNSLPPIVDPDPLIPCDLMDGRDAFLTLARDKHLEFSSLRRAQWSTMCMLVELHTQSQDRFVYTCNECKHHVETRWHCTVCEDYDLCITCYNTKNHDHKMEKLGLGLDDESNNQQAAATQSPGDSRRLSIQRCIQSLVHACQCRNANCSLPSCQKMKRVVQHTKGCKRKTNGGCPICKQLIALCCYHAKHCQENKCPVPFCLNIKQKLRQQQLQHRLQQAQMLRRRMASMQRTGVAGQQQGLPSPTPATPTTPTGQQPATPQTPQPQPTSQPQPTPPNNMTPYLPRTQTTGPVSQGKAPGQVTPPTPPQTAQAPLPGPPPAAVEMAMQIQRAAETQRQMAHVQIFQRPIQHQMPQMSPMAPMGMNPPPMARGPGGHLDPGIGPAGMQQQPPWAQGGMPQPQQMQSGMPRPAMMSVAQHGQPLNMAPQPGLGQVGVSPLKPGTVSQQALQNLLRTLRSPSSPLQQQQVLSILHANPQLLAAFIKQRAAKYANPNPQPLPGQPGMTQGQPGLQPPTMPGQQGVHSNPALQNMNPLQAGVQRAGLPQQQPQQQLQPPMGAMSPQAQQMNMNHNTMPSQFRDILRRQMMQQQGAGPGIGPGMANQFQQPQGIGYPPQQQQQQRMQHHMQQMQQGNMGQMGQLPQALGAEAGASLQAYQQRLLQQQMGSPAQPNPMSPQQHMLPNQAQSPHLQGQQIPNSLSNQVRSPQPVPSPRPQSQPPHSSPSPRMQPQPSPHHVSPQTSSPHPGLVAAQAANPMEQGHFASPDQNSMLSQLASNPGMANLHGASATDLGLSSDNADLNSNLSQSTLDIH

Chain of cbp_mouse Crebbp, P45481 (P45481 whole entry): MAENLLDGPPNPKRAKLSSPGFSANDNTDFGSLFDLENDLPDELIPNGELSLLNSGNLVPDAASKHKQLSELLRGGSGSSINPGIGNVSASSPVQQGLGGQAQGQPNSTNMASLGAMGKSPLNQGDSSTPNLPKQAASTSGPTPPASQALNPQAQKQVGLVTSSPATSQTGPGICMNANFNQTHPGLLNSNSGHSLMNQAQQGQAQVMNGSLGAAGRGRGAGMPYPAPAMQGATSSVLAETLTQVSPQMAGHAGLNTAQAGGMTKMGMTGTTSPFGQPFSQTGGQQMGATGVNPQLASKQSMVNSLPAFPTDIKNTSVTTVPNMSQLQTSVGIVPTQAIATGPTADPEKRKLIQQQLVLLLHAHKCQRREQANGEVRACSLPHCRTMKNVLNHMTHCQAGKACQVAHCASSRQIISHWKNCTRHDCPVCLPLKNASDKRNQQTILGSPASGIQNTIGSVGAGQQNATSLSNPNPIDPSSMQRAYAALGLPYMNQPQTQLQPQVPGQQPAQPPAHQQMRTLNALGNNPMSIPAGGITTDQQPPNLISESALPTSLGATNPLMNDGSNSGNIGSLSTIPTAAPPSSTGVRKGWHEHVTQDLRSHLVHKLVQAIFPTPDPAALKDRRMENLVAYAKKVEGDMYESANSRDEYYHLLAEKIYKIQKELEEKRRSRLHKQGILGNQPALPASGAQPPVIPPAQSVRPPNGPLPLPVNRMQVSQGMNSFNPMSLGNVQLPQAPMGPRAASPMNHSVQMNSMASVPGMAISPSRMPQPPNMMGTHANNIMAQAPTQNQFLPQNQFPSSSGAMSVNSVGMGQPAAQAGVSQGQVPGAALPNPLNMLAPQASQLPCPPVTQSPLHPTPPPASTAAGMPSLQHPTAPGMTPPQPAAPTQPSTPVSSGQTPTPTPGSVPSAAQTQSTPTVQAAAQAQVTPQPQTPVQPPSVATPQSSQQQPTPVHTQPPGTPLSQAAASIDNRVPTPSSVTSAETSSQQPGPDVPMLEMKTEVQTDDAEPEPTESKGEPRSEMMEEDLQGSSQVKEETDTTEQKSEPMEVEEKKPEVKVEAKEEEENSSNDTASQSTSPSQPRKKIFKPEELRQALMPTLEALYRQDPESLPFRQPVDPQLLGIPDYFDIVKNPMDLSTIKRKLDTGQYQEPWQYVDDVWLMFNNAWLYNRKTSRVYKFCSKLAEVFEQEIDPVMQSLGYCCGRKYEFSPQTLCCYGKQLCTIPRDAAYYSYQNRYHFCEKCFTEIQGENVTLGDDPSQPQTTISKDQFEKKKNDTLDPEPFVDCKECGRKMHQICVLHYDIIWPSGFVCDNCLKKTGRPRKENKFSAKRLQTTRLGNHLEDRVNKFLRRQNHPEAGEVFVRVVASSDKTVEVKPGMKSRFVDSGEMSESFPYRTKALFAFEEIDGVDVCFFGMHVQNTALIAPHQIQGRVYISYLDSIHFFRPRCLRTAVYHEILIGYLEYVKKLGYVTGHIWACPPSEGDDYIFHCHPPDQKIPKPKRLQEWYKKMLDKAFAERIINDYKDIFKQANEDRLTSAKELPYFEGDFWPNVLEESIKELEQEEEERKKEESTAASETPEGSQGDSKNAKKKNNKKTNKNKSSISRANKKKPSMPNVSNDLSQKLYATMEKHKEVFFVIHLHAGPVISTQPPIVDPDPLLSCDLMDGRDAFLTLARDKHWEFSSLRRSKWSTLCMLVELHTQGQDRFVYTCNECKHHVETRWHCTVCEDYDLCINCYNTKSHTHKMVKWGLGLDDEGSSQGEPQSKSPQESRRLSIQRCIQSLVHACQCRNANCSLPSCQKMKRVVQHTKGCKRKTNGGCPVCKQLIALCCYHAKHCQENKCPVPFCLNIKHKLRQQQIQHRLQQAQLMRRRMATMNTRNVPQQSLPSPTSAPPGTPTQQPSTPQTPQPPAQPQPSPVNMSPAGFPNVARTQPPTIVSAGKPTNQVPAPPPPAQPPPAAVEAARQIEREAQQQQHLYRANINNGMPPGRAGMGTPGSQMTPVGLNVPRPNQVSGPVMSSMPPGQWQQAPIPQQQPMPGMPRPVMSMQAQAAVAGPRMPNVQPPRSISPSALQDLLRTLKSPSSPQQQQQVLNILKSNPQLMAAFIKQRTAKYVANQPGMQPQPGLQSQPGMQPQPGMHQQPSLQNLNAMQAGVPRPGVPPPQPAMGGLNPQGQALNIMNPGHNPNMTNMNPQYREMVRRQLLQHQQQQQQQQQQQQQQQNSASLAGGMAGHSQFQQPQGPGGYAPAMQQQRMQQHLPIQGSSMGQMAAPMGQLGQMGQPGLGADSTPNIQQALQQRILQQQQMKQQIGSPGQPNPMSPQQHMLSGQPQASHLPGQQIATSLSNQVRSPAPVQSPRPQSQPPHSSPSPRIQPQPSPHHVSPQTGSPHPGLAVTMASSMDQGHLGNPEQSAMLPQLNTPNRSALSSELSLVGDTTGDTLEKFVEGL

Variant | effect of a mutation on the interaction (cbp_mouse Crebbp, P45481 [1]) | effect of a mutation on the interaction (cbp_mouse Crebbp, P45481 [2]) | effect of a mutation on the interaction (cbp_mouse Crebbp, P45481 [3]) | effect of a mutation on the interaction [4]
MDDLFPLIFPSEPAQASGPYVEIIEQPKQRGMRFRYKCEGRSAGSIPGERSTDTTKTHPTIKINGYTGPGTVRISLVTKDPPHRPHPHELVGKDCRDGYYEADLCPDRSIHSFQNLGIQCVKKRDLEQAISQRIQTNNNPFHVPIEEQRGDYDLNAVRLCFQVTVRDPAGRPLLLTPVLSHPIFDNRAPNTAELKICRVNRNSGSCLGGDEIFLLCDKVQKEDIEVYFTGPGWEARGSFSQADVHRQVAIVFRTPPYADPSLQAPVRVSMQLRRPSDRELSEPMEFQYLPDTDDRHRIEEKRKRTYETFKSIMKKSPFNGPTEPRPPTRRIAVPTRNSTSVPKPAPQPYTFPASLSTINFDEFSPMLLPSGQISNQALALAPSSAPVLAQTMVPSSAMVPLAQPPAPAPVLTPGPPQSLSAPVPKSTQAGEGTLSEALLHLQFDADEDAGALLGNSTDPGVFTDLAAVDNSEAQQLLNQGVSMSHSTAEPMLMEYPEAITRLVTGSQRPPDPAPTPLGTSGLPNGLSGDEDFSSIADMDFSALLSQISS [L449A;S467A;F473A] | disrupting interaction strength | decreasing interaction strength |  | 
MDDLFPLIFPSEPAQASGPYVEIIEQPKQRGMRFRYKCEGRSAGSIPGERSTDTTKTHPTIKINGYTGPGTVRISLVTKDPPHRPHPHELVGKDCRDGYYEADLCPDRSIHSFQNLGIQCVKKRDLEQAISQRIQTNNNPFHVPIEEQRGDYDLNAVRLCFQVTVRDPAGRPLLLTPVLSHPIFDNRAPNTAELKICRVNRNSGSCLGGDEIFLLCDKVQKEDIEVYFTGPGWEARGSFSQADVHRQVAIVFRTPPYADPSLQAPVRVSMQLRRPSDRELSEPMEFQYLPDTDDRHRIEEKRKRTYETFKSIMKKSPFNGPTEPRPPTRRIAVPTRNSTSVPKPAPQPYTFPASLSTINFDEFSPMLLPSGQISNQALALAPSSAPVLAQTMVPSSAMVPLAQPPAPAPVLTPGPPQSLSAPVPKSTQAGEGTLSEALLHLQFDADEDAGALLGNSTDPGVFTDLASVDNSEAQQLLNQGVSMSHSTAEPMLMEYPEAITRLVTGSQRPPDPAPTPLGTSGLPNGLSGDEDFSSIADMDFSALLSQISS [L449A;F473A] | disrupting interaction strength | decreasing interaction strength | disrupting interaction strength | decreasing interaction strength

Source: IntAct's records for PubMed 24019758
